Source: article doi:10.1101/2024.09.27.615443 (bioRxiv, 2024)

Molecular target: recombinant TGF-β1/GARP (Homo sapiens, UniProt P01137;Q14392)
Test: ELISA

Sequence of recombinant TGF-β1/GARP (P01137 30-390, chain 1 of 2): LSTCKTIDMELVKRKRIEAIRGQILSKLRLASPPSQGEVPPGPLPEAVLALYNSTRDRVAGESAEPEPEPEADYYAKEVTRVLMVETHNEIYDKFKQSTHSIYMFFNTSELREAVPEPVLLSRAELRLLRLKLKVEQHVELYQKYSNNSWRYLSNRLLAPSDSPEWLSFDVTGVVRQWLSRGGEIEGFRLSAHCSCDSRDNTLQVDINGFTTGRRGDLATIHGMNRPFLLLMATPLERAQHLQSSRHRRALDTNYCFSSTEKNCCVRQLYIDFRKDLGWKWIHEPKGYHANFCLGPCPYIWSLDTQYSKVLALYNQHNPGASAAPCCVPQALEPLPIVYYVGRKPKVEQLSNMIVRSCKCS
Sequence of recombinant TGF-β1/GARP (Q14392 20-662, chain 2 of 2): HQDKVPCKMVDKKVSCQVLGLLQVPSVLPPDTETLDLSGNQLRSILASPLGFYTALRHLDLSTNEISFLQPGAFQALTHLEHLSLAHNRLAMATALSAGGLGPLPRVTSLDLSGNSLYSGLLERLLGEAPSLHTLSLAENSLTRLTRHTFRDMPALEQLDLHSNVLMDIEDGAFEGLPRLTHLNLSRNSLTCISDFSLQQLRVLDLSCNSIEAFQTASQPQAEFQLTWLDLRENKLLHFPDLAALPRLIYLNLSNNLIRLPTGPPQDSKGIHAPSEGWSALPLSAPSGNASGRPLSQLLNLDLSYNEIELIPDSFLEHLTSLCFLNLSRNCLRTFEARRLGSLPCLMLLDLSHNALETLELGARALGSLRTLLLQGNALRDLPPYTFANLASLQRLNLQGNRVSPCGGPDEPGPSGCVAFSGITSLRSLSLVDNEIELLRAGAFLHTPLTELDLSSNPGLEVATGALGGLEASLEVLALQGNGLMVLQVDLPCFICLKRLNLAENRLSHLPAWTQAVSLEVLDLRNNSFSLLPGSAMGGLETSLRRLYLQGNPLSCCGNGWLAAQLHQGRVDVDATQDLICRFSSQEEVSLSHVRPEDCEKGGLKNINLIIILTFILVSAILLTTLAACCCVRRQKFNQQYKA

binding result: binds
B1: monoclonal antibody clone 28G11 (antibody, V domains shown)
VH: EVKLVESGGGLVQPGGSLSLSCAASGFTFTDYYMSWVRQPPGKALEWLGFIRNKPNGYTTEYSASVKGRFTISRDNSQSILYLQMNVLRAEDSATYYCARYTGGGYFDYWGQGTTLTVSS
VL: DIQMTQTTSSLSASLGDRLTISCRASQDISNYLNWYQQKPDGTVKLLIYYTSRLHSGVPSRFSGSGSGTDYSLTISNLEQADIATYFCQQGDTLPWTFGGGTKLEIK
